Patent US20180282402A1 (ATYR PHARMA, published 2018)

T1: Human HARS (human, UniProt P12081 1-509, limits assumed)
T1 construct: also called human HRS; human histidyl-tRNA synthetase
T1 sequence: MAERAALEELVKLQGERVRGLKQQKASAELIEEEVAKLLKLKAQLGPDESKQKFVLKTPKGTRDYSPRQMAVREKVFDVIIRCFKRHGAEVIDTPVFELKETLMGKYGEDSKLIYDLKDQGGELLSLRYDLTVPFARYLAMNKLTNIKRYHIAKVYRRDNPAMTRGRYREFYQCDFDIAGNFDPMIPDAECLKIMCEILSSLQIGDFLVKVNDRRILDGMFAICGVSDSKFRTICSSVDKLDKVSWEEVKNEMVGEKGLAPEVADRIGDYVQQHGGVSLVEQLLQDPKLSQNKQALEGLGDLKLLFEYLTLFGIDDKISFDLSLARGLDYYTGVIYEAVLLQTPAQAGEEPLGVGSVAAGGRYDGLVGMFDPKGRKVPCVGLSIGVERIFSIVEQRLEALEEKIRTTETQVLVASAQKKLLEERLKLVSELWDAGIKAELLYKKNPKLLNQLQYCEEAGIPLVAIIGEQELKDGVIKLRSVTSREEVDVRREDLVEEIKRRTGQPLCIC

T2: Mouse HARS (mouse, UniProt Q61035 1-509, limits assumed)
T2 construct: also called mouse HRS
T2 sequence: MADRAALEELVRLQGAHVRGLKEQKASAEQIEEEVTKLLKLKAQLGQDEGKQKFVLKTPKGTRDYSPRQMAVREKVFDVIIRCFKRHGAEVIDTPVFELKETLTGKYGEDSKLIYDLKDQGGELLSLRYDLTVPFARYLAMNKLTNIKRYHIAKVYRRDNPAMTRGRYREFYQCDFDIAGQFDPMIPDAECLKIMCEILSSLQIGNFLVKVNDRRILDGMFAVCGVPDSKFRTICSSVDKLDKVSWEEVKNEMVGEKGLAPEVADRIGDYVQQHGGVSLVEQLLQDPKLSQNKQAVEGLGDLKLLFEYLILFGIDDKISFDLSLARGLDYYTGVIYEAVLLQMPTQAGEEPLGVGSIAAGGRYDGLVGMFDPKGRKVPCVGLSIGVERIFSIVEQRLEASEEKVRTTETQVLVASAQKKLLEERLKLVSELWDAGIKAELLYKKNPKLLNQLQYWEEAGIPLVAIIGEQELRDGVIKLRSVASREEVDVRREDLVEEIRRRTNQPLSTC

B1: KL31-241 (antibody, V domains shown)
VH: QVQLVQSGAEVKKPGASVKVSCKASGYTFTDYCIGWIRQAPGQGLEWMGDICPGDAYTNDNEKFKDRATMTADTSTSTAYMELSSLRSEDTAVYYCARGEEQLGLRNAMDYWGQGTSVTVSS
VL: DIVMTQSPDSLAVSLGERATINCQSQSVSTSTYNYMHWYQQKPGQPPKLLIKYASNLESGVPDRFSGSGSGTDFTLTISSLQAEDVATYYCQHSWEIPWTFGGGTKLEIK
notes: Humanized; IgG1m(zf) kappa
B2: KL31-532 (antibody, V domains shown)
VH: QVQLVQSGAEVKKPGASVKVSCKASGYTFTDYCIGWIRQAPGQGLEWMGDICPGDTYTNDNEKFKDRATMTADTSTSTAYMELSSLRSEDTAVYYCARGEEQLGLRNAMDYWGQGTLVTVSS
VL: DIVMTQSPDSLAVSLGERATINCQSQSVSTSTYNYMHWYQQKPGQPPKLLIKYASNLESGVPDRFSGSGSGTDFTLTISSLQAEDVATYYCGHSYEIPWTFGGGTKVEIK
notes: Humanized; IgG1m(zf) kappa
B3: KL31-240 (antibody, IgG4, V domains shown)
VH: QVQLVQSGAEVKKPGASVKVSCKASGYTFTDYCIGWIRQAPGQGLEWMGDICPGDTYTNDNEKFKDRATMTADTSTSTAYMELSSLRSEDTAVYYCARGEEQLGLRNAMDYWGQGTLVTVSS
VL: EIVLTQSPATLSLSPGERATLSCQSQSVSTSTYNYMHWYQQKPGQAPRLLIKYASNLESGIPDRFSGSGSGTDFTLTISRLEPEDFATYYCGHSYEIPWTFGGGTKVEIK
notes: Humanized; IgG4 kappa
B4: AB04-151 (antibody, V domains shown)
VH: QVQLVESGGGLVKPGGSLRLSCAASGFTFSDYYMTWIRQAPGKGLEWVSYISGSFRYTNYADSVKGRFTISRDNAKNSLYLQMNSLRDEDTAVYFCARYVYQVVAIGDYWGQGTLVTVSS
VL: DIQMTQSPSSVSASVGDRVTITCRASQGISSWLAWYQQKPGRAPKLLIFAASSLQSGVPSRFSGSGSGTHFTLTISSLQPEDFATYYCQQAKSFPYTFGQGTKLEIK
notes: Human; IgG1m(zf) kappa
B5: AB04-174 (antibody, V domains shown)
VH: QVQLVESGGGLVKPGGSLRLSCAASGFTFSDYYMTWIRQAPGKGLEWVSYISGSNAYTDYADSVKGRFTISRDNAKNSLYLQMNSLRDEDTAVYFCARYVYQTVAIGDLWGQGTLVTVSS
VL: DIQMTQSPSSVSASVGDRVTITCRASQGISSWLAWYQQKPGRAPKLLIFAASSLQSGVPSRFSGSGSGTHFTLTISSLQPEDFATYYCQQAKSFPYTFGQGTKLEIK
notes: Human; IgG1m(zf) kappa
B6: AB04-276 (antibody, V domains shown)
VH: QVQLVESGGGLVKPGGSLRLSCAASGFTFSDYYMTWIRQAPGKGLEWVSYISGSFAYTDYADSVKGRFTISRDNAKNSLYLQMNSLRDEDTAVYFCARYVYQVVAIGDYWGQGTLVTVSS
VL: DIQMTQSPSSVSASVGDRVTITCRASQGISSWLAWYQQKPGRAPKLLIFAASSLQSGVPSRFSGSGSGTHFTLTISSLQPEDFATYYCQQAKSFPYTFGQGTKLEIK
notes: Human; IgG1m(zf) kappa
B7: AB04-365 (antibody, V domains shown)
VH: QVQLVESGGGLVKPGGSLRLSCAASGFTFSDYYMTWIRQAPGKGLEWVSYISGSFAYTNYADSVKGRFTISRDNAKNSLYLQMNSLRDEDTAVYFCARYVYQVVAIGDYWGQGTLVTVSS
VL: DIQMTQSPSSVSASVGDRVTITCRASQGISSWLAWYQQKPGRAPKLLIFAASSLQSGVPSRFSGSGSGTHFTLTISSLQPEDFATYYCQQAKSFPYTFGQGTKLEIK
notes: Human; IgG1m(zf) kappa
B8: AB04-380 (antibody, V domains shown)
VH: QVQLVESGGGLVKPGGSLRLSCAASGFTFSDYYMTWIRQAPGKGLEWVSYISGSFRYTNYAPSVKGRFTISRDNAKNSLYLQMNSLRDEDTAVYFCARYVYQVVAIGDLWGQGTLVTVSS
VL: DIQMTQSPSSVSASVGDRVTITCRASQGISSWLAWYQQKPGRAPKLLIFAASSLQSGVPSRFSGSGSGTHFTLTISSLQPEDFATYYCQQAESFPYTFGQGTKLEIK
notes: Human; IgG1m(zf) kappa
B9: AB04-411 (antibody, V domains shown)
VH: QVQLVESGGGLVKPGGSLRLSCAASGFTFSDYYMTWIRQAPGKGLEWVSYISGSNAYTDYADSVKGRFTISRDNAKNSLYLQMNSLRDEDTAVYFCARYVYQVVAVGDLWGQGTLVTVSS
VL: DIQMTQSPSSVSASVGDRVTITCRASQGISSWLAWYQQKPGRAPKLLIFAASSLQSGVPSRFSGSGSGTHFTLTISSLQPEDFATYYCQQAKSFPYTFGQGTKLEIK
notes: Human; IgG1m(zf) kappa
B10: AB04-482 (antibody, V domains shown)
VH: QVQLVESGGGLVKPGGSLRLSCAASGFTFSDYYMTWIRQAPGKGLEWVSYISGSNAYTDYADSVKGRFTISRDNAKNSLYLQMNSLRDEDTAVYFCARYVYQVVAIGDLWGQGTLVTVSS
VL: DIQMTQSPSSVSASVGDRVTITCRASQGISSWLAWYQQKPGRAPKLLIFAASSLQSGVPSRFSGSGSGTHFTLTISSLQPEDFATYYCQQAKSFPYTFGQGTKLEIK
notes: Human; IgG1m(zf) kappa
B11: AB04-483 (antibody, V domains shown)
VH: QVQLVESGGGLVKPGGSLRLSCAASGFTFSDYYMTWIRQAPGKGLEWVSYISGSNAYTNYADSVKGRFTISRDNAKNSLYLQMNSLRDEDTAVYFCARYVYQVVAIGDYWGQGTLVTVSS
VL: DIQMTQSPSSVSASVGDRVTITCRASQGISSWLAWYQQKPGRAPKLLIFAASSLQSGVPSRFSGSGSGTHFTLTISSLQPEDFATYYCQQAKSFPYTFGQGTKLEIK
notes: Human; IgG1m(zf) kappa
B12: AB13-259 (IgG1m(zf) kappa) (antibody, V domains shown)
VH: QVQLVESGGGLVKPGGSLRLSCAASGFTFSDYYMSWIRQAPGKGLEWVSYISDKSRYTKYTDSVRGRFTISRDNAKNSLYLQMNSLRAEDTAVYYCARYLYQVIAIADAWGQGTLVTVSS
VL: DIQMTQSPSSVSASVGDRVTITCRASQGISSWLAWFQQKPGKAPKLLIFVASNLESGVPSRFSGSGSGTDFTLTISSLQPEDFATYYCQQAESFPYTFGQGTKLEIK
notes: Human
B13: AB13-147 (antibody, V domains shown)
VH: QVQLVESGGGLVKPGGSLRLSCAASGFTFSDYYMSWIRQAPGKGLEWVSYISDSSRYTKYTDSVRGRFTISRDNAKNSLYLQMNSLRAEDTAVYYCARYLYQVIAIAKSWGQGTLVTVSS
VL: DIQMTQSPSSVSASVGDRVTITCRASQGISSWLAWFQQKPGKAPKLLIFVASNLESGVPSRFSGSGSGTDFTLTISSLQPEDFATYYCQQANSFPYTFGQGTKLEIK
notes: Human; IgG1m(zf) kappa
B14: AB13-166 (antibody, V domains shown)
VH: QVQLVESGGGLVKPGGSLRLSCAASGFTFSDYYMSWIRQAPGKGLEWVSYISDKSRYTKYTPSVRGRFTISRDNAKNSLYLQMNSLRAEDTAVYYCARYLYQVIAIADAWGQGTLVTVSS
VL: DIQMTQSPSSVSASVGDRVTITCRASQGISSWLAWFQQKPGKAPKLLIFVASNLESGVPSRFSGSGSGTDFTLTISSLQPEDFATYYCQQAESFPYTFGQGTKLEIK
notes: Human; IgG1m(zf) kappa
B15: AB13-227 (antibody, V domains shown)
VH: QVQLVESGGGLVKPGGSLRLSCAASGFTFSDYYMSWIRQAPGKGLEWVSYISDSSRYTKYTDSVRGRFTISRDNAKNSLYLQMNSLRAEDTAVYYCARYLYQVIAIAKSWGQGTLVTVSS
VL: DIQMTQSPSSVSASVGDRVTITCRASQGISSWLAWFQQKPGKAPKLLIFVASNLESGVPSRFSGSGSGTDFTLTISSLQPEDFATYYCQQAESFPYTFGQGTKLEIK
notes: Human; IgG1m(zf) kappa
B16: AB13-259 (IgG4-2 kappa) (antibody, V domains shown)
VH: QVQLVESGGGLVKPGGSLRLSCAASGFTFSDYYMSWIRQAPGKGLEWVSYISDKSRYTKYTDSVRGRFTISRDNAKNSLYLQMNSLRAEDTAVYYCARYLYQVIAIADAWGQGTLVTVSS
VL: DIQMTQSPSSVSASVGDRVTITCRASQGISSWLAWFQQKPGKAPKLLIFVASNLESGVPSRFSGSGSGTDFTLTISSLQPEDFATYYCQQAESFPYTFGQGTKLEIK
notes: Human

Biological target: T1, Human HARS
Experiment: SPR (ProteOn); HRS protein immobilized, antibody as analyte

Point of comparison: B16, Kd 29 pM. Against it:
- B1 — 48-fold higher, 1400 pM
- B2 — 2.2-fold higher, 64 pM
- B3 — 3.6-fold higher, 104 pM
- B4 — within 1.5-fold, 25 pM
- B5 — 5900-fold higher, 170000 pM
- B6 — 16-fold higher, 460 pM
- B7 — 6.4-fold higher, 185 pM
- B8 — within 1.5-fold, 26 pM
- B9 — 66-fold higher, 1900 pM
- B10 — 9-fold higher, 260 pM
- B11 — 9.1-fold higher, 265 pM
- B12 — 1.9-fold lower, 15 pM
- B13 — within 1.5-fold, 24 pM
- B14 — lower, < 1 pM
- B15 — not separable, < 50 pM

Biological target: T2, Mouse HARS
Experiment: as above

Point of comparison: B1, Kd 5100 pM. Against it:
- B2 — 14-fold lower, 370 pM
- B3 — 5.4-fold lower, 942 pM
